# Experimental data: PMC10457309
# Molecular target: HH-120 (IgM-like hACE2-Fc fusion protein) (UniProt Q9BYF1)
# Assay: SPR
row,Substance,Kd
1,S trimer protein of the SARS-CoV-2 Delta variant (from UniProt P0DTC2) (natural protein),1 nM
2,S trimer protein of the SARS-CoV-2 Alpha variant (from UniProt P0DTC2) (natural protein),1 nM
3,S trimer protein of the SARS-CoV-2 Omicron variant (from UniProt P0DTC2) (natural protein),1 nM
4,S trimer protein of the SARS-CoV-2 Beta variant (from UniProt P0DTC2) (natural protein),1 nM
